Laboratory results: article PMC10526462

Columns and labels:
alpha-thrombin [1] = target: T1, alpha-thrombin (Homo sapiens, UniProt P00734;P00734 328-363;364-622); experiment: competition; 100-fold excess over biotinylated AYA1809007; 20 mM Tris pH 7.5, 150 mM NaCl, 0.1% BSA, 0.1% Tween 20, 100 ug/mL sheared salmon sperm DNA, 1 h, room temperature; thrombin coated at 250 nM
alpha-thrombin [2] = target: T1, alpha-thrombin; experiment: ELISA; 20 mM Tris pH 7.5, 150 mM NaCl, 0.1% BSA, 0.1% Tween 20, 100 ug/mL sheared salmon sperm DNA, 1 h, room temperature; thrombin coated at 250 nM
alpha-thrombin [3] = target: T1, alpha-thrombin; experiment: ELISA-based binding with competition; 100-fold excess unlabeled competitor as control; 20 mM Tris pH 7.5, 150 mM NaCl, 0.1% BSA, 0.1% Tween 20, 100 ug/mL sheared salmon sperm DNA, 1 h, room temperature; thrombin coated at 250 nM

B1: AYA1809007 unlabeled (structured_DNA)
DNA: AGGGGCTCTAGGGTGGGTAGGATGGTGAGACCGCAGCGT
alpha-thrombin [1]
  binding result: binds

B2: AYA1809007 (structured_DNA)
DNA: B1 DNA
alpha-thrombin [2]
  binding result: binds

B3: AYA1809004 (structured_DNA)
DNA: TCGTCAAGGTACGGTTGGGGGGGTGGGTGTTGACGTTGAA
alpha-thrombin [3]
  Kd: 13 nM

B4: AYA1809002 (structured_DNA)
DNA: GCGGTGTTGCTGGGGTTGGGAGGTTGGAGGAAGCAATCGC
alpha-thrombin [3]
  Kd: 10 nM
